Results: patent publication US20240343803A1 (SHANDONG SIMCERE BIOPHARMACEUTICAL, published 2024)

T1: human PVRIG-his (AcroBiosystems, Cat NO. PVG-H52H4) (human, UniProt Q6DKI7 41-171, limits assumed)
T1 construct: treated as the same protein; also called human PVRIG-His protein; Human PVRIG-His, Acro C227P1-9ARF1-T4
T1 sequence (looked up): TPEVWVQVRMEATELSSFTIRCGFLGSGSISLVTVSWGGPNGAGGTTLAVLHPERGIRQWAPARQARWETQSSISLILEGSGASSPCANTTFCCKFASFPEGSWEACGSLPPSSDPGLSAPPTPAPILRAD

T2: human PVRIG on FlpinCHO-PVRIG cells (human, UniProt Q6DKI7 41-326)
T2 construct: whole, on cells; also called FlpinCHO-hPVRIG; FlpinCHO-human PVRIG
T2 sequence (looked up): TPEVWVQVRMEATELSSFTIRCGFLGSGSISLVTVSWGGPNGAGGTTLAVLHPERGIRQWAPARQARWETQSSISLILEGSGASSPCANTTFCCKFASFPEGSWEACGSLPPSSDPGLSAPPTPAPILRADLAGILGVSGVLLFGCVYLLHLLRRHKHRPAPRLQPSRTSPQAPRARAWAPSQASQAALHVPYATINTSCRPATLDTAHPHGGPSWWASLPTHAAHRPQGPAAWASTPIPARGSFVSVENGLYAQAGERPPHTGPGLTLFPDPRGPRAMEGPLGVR

T3: human PVRIG-mFc protein (Acro, PVG-H5253) (human, UniProt Q6DKI7 41-171, limits assumed)
T3 construct: bought reagent; also called PVRIG-ECD-mFc
T3 sequence (looked up): T1 sequence (looked up)

B1: PVRIG-A11 (VHH)
VHH: QLQLVESGGGLVQPGGSLRLSCAASGFTDDYYAIGWFRQAPGKEREGVSCISGSGGSTNYEDSVKGRFAISRDNAKNMVYLQMNDLKPEDTAVYYCAADPFWSAPCTGHNDRYFDVWGQGTLVTVSS
notes: tested as VHH-hinge-CH2-CH3 (human IgG1-Fc); not shown: human IgG1 hinge-CH2-CH3
B2: PVRIG-A117 (VHH)
VHH: EVQVVESGGGLVQAGGSLRLSCTASEHIYDLYIMGWYRQAPGKDRELVATITYTGSIYIADSVKDRFTISRGNAKNTVSLQMSGLKPEDTAVYYCNADPSGLGRKLYWGQGTQVTVSS
notes: as for B1

Assays:
[1] = molecular target: T1, human PVRIG-his (AcroBiosystems, Cat …); test: competition ELISA on coated human PVRIG-his; blocked ligand human PVRL2-mFc
Method: The ELISA plate was pre-coated with 100 μL/well of 0.5 μg/mL human PVRIG-his protein (AcroBiosystems, Cat NO. PVG-H52H4). The tested anti-PVRIG antibodies were diluted from the highest concentration of 16 nM (two-fold concentration). The diluted antibodies were mixed with 18 ng/ml human PVRL2-mFc (AcroBiosystems, Cat NO. CD2-H5257) in equal volume, added into the plate (100 μL/well), and incubated with shaking at room temperature for 2.0 hours. […] A HRP substrate, TMB (Thermo, Cat NO. 34029) was added into wells after washing the plate again for color development. After adding a termination solution to terminate the reaction, the absorbance value was read by a microplate reader (MD i3×). An inhibiting curve was drawn with concentration of antibodies as the abscissa and the corresponding OD value as the ordinate. The IC50 value was calculated by using a Four Parameter Logistic Fit (GraphPadPrism9). The smaller the IC50 value, the stronger the ability of the antibodies inhibits the binding between PVRIG and PVRL2. The positive and negative controls are the same as in Example 8.

[2] = molecular target: T2, human PVRIG on FlpinCHO-PVRIG cells; test: FACS, FlpinCHO-PVRIG cells
Method: After discarding the cell culture medium, the cells were rinsed with PBS and digested for 8-10 minutes by adding 1 mL Versene (Gibico, 15040-066). The Ham's F12 (Gibico, 21127-022) complete medium containing 10% FBS was then added to terminate the digestion and acquire cell suspension. After counting with a cell counter (Beckman Coulter, Vi-CELL), an appropriate amount of cell suspension was centrifuged at 350×g to remove the supernatant, washed twice with PBS, stained with Zombie violet (Biolegend, 423114) and incubated at room temperature for 20 minutes. After incubation, the cells were added with staining buffer (2% FBS+PBS) to stop staining, centrifuged at 350×g to remove the supernatant, washed twice and resuspended with staining buffer to a density of 2×10⁶ cells/mL. The cells were plated into a 96-well plate (50 μL of cell suspension per well) for further use. The antibodies were diluted from the highest concentration of 46 nM (two-fold concentration) with staining buffer by 3.3-fold serial dilution. The diluted antibodies were added to the well containing 50 μL of cell suspension. The plate was placed on a microplate shaker at 400 rpm for 1 minute to fully mix the antibodies and cells, and then incubated at 4° C. for 30 minutes. After the incubation, the cells were washed twice with staining buffer (200 μL per well) and centrifuged at 350×g for 5 minutes to discard the supernatant. The PE goat anti-human IgG Fc antibody (ebioscience, 12-4998-82) was diluted 250 times with staining buffer, added into the washed wells (100 μL per well), mixed well, and stained at 4° C. for 30 minutes. After staining, the cells were washed twice with staining buffer, finally resuspended with 200 μL staining buffer and analyzed by flow cytometry (BD, Canto II). The stronger the signal, the stronger the ability of the antibodies binds to PVRIG. An antibody binding curve was drawn with concentration of antibodies as the abscissa and the corresponding Mean Fluorescence Intensity (MFI) as the ordinate. The AUC value of the curve was calculated by using a Four Parameter Logistic Fit (GraphPadPrism9).

[3] = molecular target: T3, human PVRIG-mFc protein (Acro, …); test: competition FACS; blocked: human PVRIG-mFc binding to CHO-K1-CD112 cells
Method: After incubation, the cells were added with staining buffer (2% FBS+PBS) to stop staining, centrifuged at 350×g to remove the supernatant, washed twice and resuspended with staining buffer to a density of 1×10⁶ cells/mL. The cells were plated into a 96-well plate (50 μL of cell suspension per well) for further use. A working solution of human PVRIG-mFc protein (Acro, PVG-H5253) prepared with staining buffer, 1 μg/mL (four-fold concentration), was added into a 96-well plate (50 μL PVRIG-mFc working solution per well). […] The diluted antibodies were added to the well containing 50 μL of PVRIG-mFc. The plate was placed on a microplate shaker at 400 rpm for 1 minute to fully mix the antibodies and PVRIG-mFc proteins, and then incubated at 4° C. for 30 minutes. After the incubation, the cell suspension prepared above (100 μL) was added into the wells, gently mixed with the pipette tip and incubated at 4° C. for 30 minutes. After the incubation, the cells were washed twice with staining buffer (200 μL per well) and centrifuged at 350×g for 5 minutes to discard the supernatant. The PE goat anti-mouse IgG Fc antibody (Biolegend, 405337) was diluted 250 times with staining buffer, added into the washed wells (100 μL per well), mixed well, and stained at 4° C. for 30 minutes. After staining, the cells were washed twice with staining buffer, finally resuspended with 200 μL staining buffer and analyzed by flow cytometry (BD, Canto II). The weaker the fluorescence signal, the stronger the ability of the antibodies blocks the binding of CHO-K1 human CD112 cells to the PVRIG-mFc protein. An antibody binding curve was drawn with concentration of antibodies as the abscissa and the corresponding Mean Fluorescence Intensity (MFI) as the ordinate. The IC50 value of the antibodies and the AUC value of the binding curve were calculated by using a Four Parameter Logistic Fit (GraphPadPrism9). The smaller the IC50 value and AUC value, the stronger the ability of the antibodies competes with CHO-K1-CD112 cells to bind to human PVRIG-mFc protein.

IC50 (read off the curve) [1]	EC50 (read off the curve) [2]	IC50 (read off the curve) [3]	Binder
~0.8 nM	~0.1 nM	~0.9 nM	B1
~0.5 nM	~0.3 nM	~1 nM	B2
